The data set concerns the molecule itself. Briefly: crystal structure.

B1: ERα-L372S/L536S double-mutant ligand-binding domain (LBD, amino acid residues 298–554) (domain or fragment, UniProt P03372 298-554, looked up)
chain: IKRSKKNSLALSLTADQMVSALLDAEPPILYSEYDPTRPFSEASMMGLLTNLADRELVHMINWAKRVPGFVDLTSHDQVHLLECAWLEILMIGLVWRSMEHPGKLLFAPNLLLDRNQGKCVEGMVEIFDMLLATSSRFRMMNLQGEEFVCLKSIILLNSGVYTFLSSTLKSLEEKDHIHRVLDKITDTLIHLMAKAGLTLQQQHQRLAQLLLILSHIRHMSNKGMEHLYSMKCKNVVPSYDLLLEMLDAHRLHAPTS
For B1, the binding result is given as “binds”.
